Assay results reported in patent US20240374744.

System: huHF(+)-DOX (huHF(+) protein nanoparticle-doxorubicin conjugate)
Sequence (chain, as listed by the source): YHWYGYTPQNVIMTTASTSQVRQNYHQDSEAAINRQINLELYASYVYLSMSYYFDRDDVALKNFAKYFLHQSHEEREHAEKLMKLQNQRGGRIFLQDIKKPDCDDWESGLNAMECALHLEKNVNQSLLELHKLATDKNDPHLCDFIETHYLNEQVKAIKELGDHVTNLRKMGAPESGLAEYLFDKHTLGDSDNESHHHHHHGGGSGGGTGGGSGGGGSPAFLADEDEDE

Protein | cleavage of the conjugate and release of doxorubicin (native-PAGE, UV absorbance), enzyme in LPM mixture
cathepsin H (enzyme, UniProt P09668 116-335, looked up, species assumed) Cathepsin H: YPPSVDWRKKGNFVSPVKNQGACGSCWTFSTTGALESAIAIATGKMLSLAEQQLVDCAQDFNNHGCQGGLPSQAFEYILYNKGIMGEDTYPYQGKDGYCKFQPGKAIGFVKDVANITIYDEEAMVEAVALYNPVSFAFEVTQDFMMYRTGIYSSTSCHKTPDKVNHAVLAVGYGEKNGIPYWIVKNSWGPQWGMNGYFLIERGKNMCGLAACASYPIPLV | it was observed that the peptide was not specifically cleaved thereby the drug was not selectively released
PrCP (prolylcarboxypeptidase) (enzyme, UniProt P42785 46-496, looked up, species assumed) Lysosomal Pro-X carboxypeptidase: KNYSVLYFQQKVDHFGFNTVKTFNQRYLVADKYWKKNGGSILFYTGNEGDIIWFCNNTGFMWDVAEELKAMLVFAEHRYYGESLPFGDNSFKDSRHLNFLTSEQALADFAELIKHLKRTIPGAENQPVIAIGGSYGGMLAAWFRMKYPHMVVGALAASAPIWQFEDLVPCGVFMKIVTTDFRKSGPHCSESIHRSWDAINRLSNTGSGLQWLTGALHLCSPLTSQDIQHLKDWISETWVNLAMVDYPYASNFLQPLPAWPIKVVCQYLKNPNVSDSLLLQNIFQALNVYYNYSGQVKCLNISETATSSLGTLGWSYQACTEVVMPFCTNGVDDMFEPHSWNLKELSDDCFQQWGVRPRPSWITTMYGGKNISSHTNIVFSNGELDPWSGGGVTKDITDTLVAVTISEGAHHLDLRTKNALDPMSVLLARSLEVRHMKNWIRDFYDSAGKQH | it was observed that the peptide was not specifically cleaved thereby the drug was not selectively released
